Results from patent publication US20250361288A1 (Gilead, published 2025).
Residue numbers refer to the chain shown, from its start. Names and notes keep the numbering of the source. Like-named read-outs stand apart in the source and are kept apart here.

T1: human HVEM extracellular domain fused with an Fc fragment at the C-terminus (human, UniProt Q92956 39-202)
T1 construct: extracellular domain; Bought; also called hHVEM; not shown: Fc fragment at the C-terminus
T1 sequence (looked up): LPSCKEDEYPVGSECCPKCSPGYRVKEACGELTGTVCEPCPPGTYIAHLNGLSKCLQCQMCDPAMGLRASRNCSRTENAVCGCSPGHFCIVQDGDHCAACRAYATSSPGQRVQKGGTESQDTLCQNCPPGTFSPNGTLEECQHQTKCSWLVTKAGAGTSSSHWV

T2: mouse HVEM extracellular domain fused with an Fc fragment at the C-terminus (mouse, UniProt Q80WM9 39-206, limits assumed)
T2 construct: extracellular domain; Bought; also called mHVEM; not shown: Fc fragment at the C-terminus
T2 sequence (looked up): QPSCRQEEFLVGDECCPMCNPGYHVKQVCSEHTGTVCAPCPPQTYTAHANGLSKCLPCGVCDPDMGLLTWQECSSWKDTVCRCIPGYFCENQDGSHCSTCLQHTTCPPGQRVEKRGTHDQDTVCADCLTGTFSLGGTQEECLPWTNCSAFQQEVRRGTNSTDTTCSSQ

B1: LIGHT-10 (ligand)
chain: DGPAGSWEQLIQERRSHEVNPAAHLTGANSSLTGSGGPLLWETQLGLAFLRGLSYHDGALVVTKAGYYYIYSKVQLSGVGCPLGLASPITHGLYKRTPRYPEELELLVSQQSPCGRATSSSRVWWDSSFLGGVVHLEAGEKVVVRVSDERLVRLRDGTRSYFGAFMV
notes: Printed mutations: G150S, T161P, L220S; Soluble protein carries an N-terminal His tag
B2: LIGHT-39 (ligand)
chain: B1 chain with S77G, L85P, P88T, L93M, S147M
notes: Printed mutations: L158P, L166M, L220M; Soluble protein carries an N-terminal His tag
B3: LIGHT-16 (ligand)
chain: B1 chain with Q44H, S77G, L85M, P88T, E140D, S147L
notes: Printed mutations: Q117H, L158M, E213D; Soluble protein carries an N-terminal His tag
B4: LIGHT-31 (ligand)
chain: B1 chain with S77G, S87R, P88S
notes: Printed mutations: S160R, T161S, L220S; Soluble protein carries an N-terminal His tag
B5: LIGHT-26 (ligand)
chain: B1 chain with S77G, S87H, P88T, E149Q
notes: Printed mutations: S160H, L220S, E222Q; Soluble protein carries an N-terminal His tag
B6: LIGHT-88 (ligand)
chain: B1 chain with A22T, S77R, S87R, P88T, P101L, W125Q, R155L
notes: Printed mutations: A95T, G150R, S160R, P174L, W198Q, L220S, R228L; Soluble protein carries an N-terminal His tag
B7: LIGHT-29 (ligand)
chain: B1 chain with S77G, S87N, P88T
notes: Printed mutations: S160N, L220S; Soluble protein carries an N-terminal His tag
B8: LIGHT-37 (ligand)
chain: B1 chain with S77G, P88T, A117T, F129Y, K141E, S147L
notes: Printed mutations: A190T, F202Y, K214E; Soluble protein carries an N-terminal His tag
B9: LIGHT-20 (ligand)
chain: B1 chain with S77G, S87A, P88T, E149D
notes: Printed mutations: S160A, L220S, E222D; Soluble protein carries an N-terminal His tag
B10: LIGHT-23 (ligand)
chain: B1 chain with S77G, S87G, P88T
notes: Printed mutations: S160G, L220S; Soluble protein carries an N-terminal His tag
B11: LIGHT-21 (ligand)
chain: B1 chain with S77G, S87G, S147T
notes: Printed mutations: S160G, T161P, L220T; Soluble protein carries an N-terminal His tag
B12: LIGHT-42 (ligand)
chain: B1 chain with S77R, P88T
notes: Printed mutations: G150R, L220S; Soluble protein carries an N-terminal His tag
B13: LIGHT-27 (ligand)
chain: B1 chain with S77G, S87N, P88S, E149D
notes: Printed mutations: S160N, T161S, L220S, E222D; Soluble protein carries an N-terminal His tag
B14: LIGHT-22 (ligand)
chain: B1 chain with S77G, S87G, P88S
notes: Printed mutations: S160G, T161S, L220S; Soluble protein carries an N-terminal His tag
B15: LIGHT-24 (ligand)
chain: B1 chain with S77G, S87G, P88T, A117T
notes: Printed mutations: S160G, A190T, L220S; Soluble protein carries an N-terminal His tag
B16: LIGHT-28 (ligand)
chain: B1 chain with S77G, S87N, P88T, K141E, S147L, L154M
notes: Printed mutations: S160N, K214E, L227M; Soluble protein carries an N-terminal His tag
B17: LIGHT-14 (ligand)
chain: B1 chain with T43S, S77G, L85Q, P88T, L93M, S147L
notes: Soluble protein carries an N-terminal His tag
B18: LIGHT-18 (ligand)
chain: B1 chain with V62I, S77G, L85Q, P88T, K141E, S147L, E149K
notes: as for B17
B19: LIGHT-19 (ligand)
chain: B1 chain with T63S, S77G, L83P, S87G, P88T, S147M
notes: as for B17
B20: LIGHT-46 (ligand)
chain: B1 chain with L53M, S77G, P88T, K141E, S147L
notes: Printed mutations: L126M, K214E; Soluble protein carries an N-terminal His tag
B21: LIGHT-25 (ligand)
chain: B1 chain with S77G, S87H, P88T
notes: Printed mutations: S160H, L220S; Soluble protein carries an N-terminal His tag
B22: LIGHT-87 (ligand)
chain: B1 chain with S77R, S87R, P88T, W125Q, R155L
notes: Printed mutations: G150R, S160R, W198Q, L220S, R228L; Soluble protein carries an N-terminal His tag
B23: LIGHT-17 (ligand)
chain: B1 chain with Q44N, S77G, P88T, H135Y, S147L
notes: Printed mutations: H208Y, Q117N; Soluble protein carries an N-terminal His tag
B24: LIGHT-34 (ligand)
chain: B1 chain with S77G, P88S
notes: Printed mutations: T161S, L220S; Soluble protein carries an N-terminal His tag
B25: LIGHT-89 (ligand)
chain: B1 chain with A22T, S77R, S87R, P88T, P101L, W125Q, S147L, R155L
notes: as for B17
B26: LIGHT-35 (ligand)
chain: B1 chain with S77G, P88S, E149N
notes: Printed mutations: T161S, L220S, E222N; Soluble protein carries an N-terminal His tag
B27: LIGHT-36 (ligand)
chain: B1 chain with S77G, P88T, H135Y, S147L
notes: Printed mutations: H208Y; Soluble protein carries an N-terminal His tag
B28: LIGHT-15 (ligand)
chain: B1 chain with Q44E, S77G, P88T, E102K, K141E, S147L, L154T
notes: Printed mutations: Q117E, E175K, K214E, L227T; Soluble protein carries an N-terminal His tag

How the values were obtained:
[1] = biological target: T1, human HVEM extracellular domain fused …; experiment: ELISA on coated target-Fc
Method: (§1) Nunc MaxiSorp 96-well plates (Thermofisher) were coated with target proteins (1 μg/ml), and then blocked with 2% BSA-PBS buffer for one hour. Serial dilutions of the LIGHT muteins were added with a maximum concentration of 200 ng/ml. The plates were incubated for one hour, washed four times with PBST, and then incubated with mouse anti-His tag antibody (#105327, Sino Biological) for 1 hour. The plates were further incubated with HRP-conjugated goat anti-mouse secondary antibody (#SSA006, Sino Biological) before being washed three times with PBST and treated with TMB substrate (#34029, ThermoFisher). The plates were read at 450 nm on a SpectraMax M5 microplate reader (Molecule Devices). The ELISA results were analyzed using GraphPad Prism 9.0 software and the EC50s (half maximal effective concentration) were summarized in Table 5-1 and Table 5-2.

[2] = biological target: T3, human LTβR extracellular domain fused with an Fc fragment at the C-terminus (human, UniProt P36941 31-227); experiment: ELISA on coated target-Fc
T3 construct: extracellular domain; Bought; also called hLTβR; not shown: Fc fragment at the C-terminus
Method: as §1

[3] = biological target: T4, mouse LTβR extracellular domain fused with an Fc fragment at the C-terminus (mouse, UniProt P50284 31-223); experiment: ELISA on coated target-Fc
T4 construct: extracellular domain; Bought; also called mLTβR; not shown: Fc fragment at the C-terminus
Method: as §1

[4] = biological target: T2, mouse HVEM extracellular domain fused …; experiment: phage ELISA
Method: (§2) Individual clones from the fourth selection round were grown in 96-well deep well blocks in 100 μl of 2YT broth supplemented with 50 μg/ml ampicillin at 37° C. and 220 rpm for 5 hours. Then, 5 μl of helper phages were added to each well and incubated at 37° C. for 30 minutes. After centrifuging at 3,000 rpm for 10 minutes, the cells were resuspended and grown overnight in 150 μl/well of 2YT broth supplemented with 50 μg/ml ampicillin and 50 μg/ml kanamycin.
(§3) For the ELISA screening, 96-well ELISA plates were coated with target proteins (1 μg/ml in PBS) at 4° C. overnight and then blocked with 2% BSA for 2 hours at room temperature. The supernatant containing phage particles was added to the plates and incubated at room temperature for 1 hour. After incubation, the plates were washed five times with PBST. HRP (horseradish peroxidase) conjugated anti-M13 antibody (Sino Biological, China) was added to the wells and incubated at room temperature for 1 hour. Following another round of washing five times with PBST, 50 μl of TMB (3,3′, 5,5″-tetramethylbenzidine, #34029, ThemoFisher) was added to each well. After 5 minutes, the reaction was stopped by adding 50 μl stop solution (#C1058, Solarbio, China). The absorbance at 450 nm (OD450) was measured using a plate reader (SpectraMax M5, Molecule Devices). Wells coated with BSA were used as negative controls. Phage clones with an ELISA score ratio (target/BSA)>3 were considered positive clones.

[5] = biological target: T3, human LTβR extracellular domain fused …; experiment: ELISA on coated target-Fc; remark: listed apart in the source
Method: as §1

[6] = biological target: T4, mouse LTβR extracellular domain fused …; experiment: ELISA on coated target-Fc; remark: listed apart in the source
Method: as §1

[7] = biological target: T4, mouse LTβR extracellular domain fused …; experiment: phage ELISA
Method: as §2, §3

[8] = biological target: T1, human HVEM extracellular domain fused …; experiment: ELISA on coated target-Fc; remark: listed apart in the source
Method: as §1

T4 sequence (P50284 31-223): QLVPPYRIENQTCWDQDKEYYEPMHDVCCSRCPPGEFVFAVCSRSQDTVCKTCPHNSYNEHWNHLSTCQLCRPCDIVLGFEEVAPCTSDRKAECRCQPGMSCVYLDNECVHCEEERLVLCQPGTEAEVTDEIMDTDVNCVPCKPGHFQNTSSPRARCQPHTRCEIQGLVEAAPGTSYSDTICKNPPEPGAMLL
T3 sequence (P36941 31-227): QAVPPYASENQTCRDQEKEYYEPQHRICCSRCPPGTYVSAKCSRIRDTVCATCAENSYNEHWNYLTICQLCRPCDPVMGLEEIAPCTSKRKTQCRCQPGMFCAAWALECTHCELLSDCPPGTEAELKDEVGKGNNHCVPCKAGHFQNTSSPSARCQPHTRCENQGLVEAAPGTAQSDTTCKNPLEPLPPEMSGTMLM

Binder	EC50 [1] [µg/mL]	EC50 [2] [µg/mL]	EC50 [3] [µg/mL]	binding result [4]	binding result [3]	EC50 [5] [nM]	EC50 [6] [nM]	binding result [2]	binding result [7]	EC50 [8] [nM]
B1	0.0467	0.0441	0.0804	binds	–	–	–	–	–	–
B2	0.049	0.0542	0.0239	binds	–	–	–	–	–	–
B3	0.0738	0.16	–	binds	binds	–	–	–	–	–
B4	0.051	0.0867	0.0747	binds	–	–	–	–	–	–
B5	0.0484	0.0727	0.0483	binds	–	–	–	–	–	–
B6	–	–	–	–	–	0.264	0.262	–	–	–
B7	0.0428	0.0452	0.0209	binds	–	–	–	–	–	–
B8	0.037	0.0434	0.0678	binds	–	–	–	–	–	–
B9	0.0496	0.0521	–	binds	binds	–	–	–	–	–
B10	0.0588	0.0892	0.0916	binds	–	–	–	–	–	–
B11	0.0422	0.0715	0.134	binds	–	–	–	–	–	–
B12	0.0814	0.0639	0.025	binds	–	–	–	–	–	–
B13	0.0504	0.0827	0.0642	binds	–	–	–	–	–	–
B14	0.0471	0.0686	0.0624	binds	–	–	–	–	–	–
B15	0.0632	–	–	binds	binds	–	–	binds	–	–
B16	0.0873	0.0811	0.256	binds	–	–	–	–	–	–
B17	0.03	–	0.0249	–	–	–	–	–	–	–
B18	0.0447	0.0894	0.0413	–	–	–	–	–	–	–
B19	0.0681	–	0.468	–	–	–	–	–	–	–
B20	0.0978	0.0675	–	binds	–	–	–	–	binds	–
B21	0.0542	–	0.0323	binds	–	–	–	binds	–	–
B22	–	–	–	–	–	0.413	0.315	–	–	6.68
B23	0.0511	0.0805	0.0442	binds	–	–	–	–	–	–
B24	0.0202	0.059	0.0446	binds	–	–	–	–	–	–
B25	–	–	–	–	–	0.625	0.503	–	–	–
B26	0.0416	0.0703	0.0383	binds	–	–	–	–	–	–
B27	0.137	0.19	0.27	binds	–	–	–	–	–	–
B28	0.0597	0.0748	0.139	binds	–	–	–	–	–	–
